# Experimental data reported in patent CN112979797A (CHINESE ACAD INSPECTION & QUARANTINE, dated 2021).
# B1: 单克隆抗体2D3 (antibody, V domains shown)
# VH: EVQLQQSKTELVRSGASVKLSCTASGFNIKDYFIHWVKQRPEQGLEWIGWIDPENGDTEYAPKFQGKATMTADTSSNTAYLQLGSLTSEDTAVYYCYSRGWHLENLEYWGQGTTLTVSS
# VL: DVLMTQTPLSLPVSLGDQASISCRSSQSIVHSNGNTYLEWYLQKPGQSPKLLIYKVSNRFSGVPDRFSGSGSGTDFTLKISRVEAEDLGVYYCFQGSHVPRTFGGGTKLEIKR
# notes: also called 2D3单抗; 2D3抗体
# Molecular target: T1, 原核表达的带HIS标签的重组蛋白SBV-N (SBV, UniProt H2AM13 1-233)
# T1 sequence: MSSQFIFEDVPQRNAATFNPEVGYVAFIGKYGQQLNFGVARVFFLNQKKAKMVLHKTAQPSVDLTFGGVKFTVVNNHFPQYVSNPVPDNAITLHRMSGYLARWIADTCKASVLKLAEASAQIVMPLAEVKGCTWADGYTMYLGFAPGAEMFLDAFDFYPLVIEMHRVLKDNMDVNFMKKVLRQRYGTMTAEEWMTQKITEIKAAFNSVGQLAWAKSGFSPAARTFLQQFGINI
# Assay: Western blot, hybridoma supernatant on His-tagged recombinant protein
binder,measurement,value
B1,binding result,no binding
